Measured values: paper PMC12377726 (Proceedings of the National Academy of Sciences of the …, 2025)

B1: G001_LD_07A_VRC01c_58 (antibody, V domains shown)
VH: QVQLVQSGAEVRKPGASVKVSCKASGYTFTDYYIHWVRQAPGQGLEWMGWINPNSGGTNYAQKFQGWVTMTRDTSISTAHMELRRLRSDDRAVYYCARGVVHSGFEFGYWGQGTLVTVSS
VL: DIQMTQSPSTLSASVGDRVTITCRASQSISNWLAWYQQKPGKAPKLLIYKASSLESGVPSRFSGSGSGTEFTLTISSLQPDDFATYYCQQYETFGQGTKVEIK
notes: also called G001-58
B2: G001_gp1_V10_VRC01c_2021-0087 (antibody, V domains shown)
VH: QVQLVQSGAEVKKPGASVKVSCKASGYTFTGNYIHWVRQAPGQGLEWVGWLNPNSGGTNYAQQFQGRVTMTRDTSISTAYMELNRLRSDDTAVFYCARGLWQWEFRYWGQGTLVTVSS
VL: DIVLTQSPGTLSLSPGERATLSCRASQSVSSSNLAWYQQKPGQAPRLLIYGASSRATGIPDRFSGSGSGTDFTLTISRLEPEDCAVYYCQQYEGFGGGTKVEIK
notes: also called G001-0087
B3: G001_gp1_V10_VRC01c_2021-0132 (antibody, V domains shown)
VH: QVQLVQSGAEVKKPGASVKVSCQASGYTFTAYHMHWVRQAPGQGLEWMGWINPTSGGTNYAQKFQGRVTMTRDTSITTAYMDLTRLRSDDTAVYYCARHRGGWFFDLWGRGTLVTVSS
VL: DIQMTQSPSSLSASVGDRVTITCQASQDISNYLNWYQQKPGKAPNLLIYDASNLEAGVPSRFSGSGSGTDFTFTISSLQPEDIATYYCQQYETFGQGTKLEIR
B4: G001_gp1_V10_VRC01c_2021-0133 (antibody, V domains shown)
VH: QVQLVQSGPEVKKPGASVKVSCTASGFSFTGYYIHWLRQAPGPGLEWMGWINPNSGGTNYAQIFQDRVTMTRDTSISTAYMELSRLRSDDTAVYYCARVSVTTVWYFDLWGRGTLVTVSS
VL: DIQMTQSPSSLSASVGDRVTITCQASQDISNYLNWYQQKPGKAPKLLIYDVFNLETGVPSRFSGSGSGTDFTFTISSLQPEDIATYYCQQYETFGGGTKVEIK
B5: G001_gp1_V10_VRC01c_2021-0137 (antibody, V domains shown)
VH: QVQLVQSGAEVKKPGASVKVSCKASGYTFTGYYMYWVRQAPGQGFEWMGWLNPNSGGTNYAQKFQGRVTMTRDTSISTAYMELSRLRSDDTAVYYCARVTSGSGWAFDYWGQGTLVTVSS
VL: DIQMTQSPSSLSASVGDRVTITCQASQDISNNLNWYQQKPGKAPKLLIYDVSNLETGVPSRFSGSGSGTDFTFTISSLQPEDIATYYCQQYGTFGGGTKVEIK
B6: G001_gp1_V10_VRC01c_2021-0134 (antibody, V domains shown)
VH: QVQLVQSGAEVKKPGASVKVSCEASGYTFTGSYMHWVRQAPGQGLEWMGWINPNSGGTNYAQKFQGRVTMTRDTSITTAYMELSRLRSDDTAVYYCATRAAATNWYFDLWGRGTLVTVSS
VL: DIQMTQSPSSLSASVGDRVTITCQASQDINNHLNWYQQKPGKALKLLIYDASNLQTGVPSRFSGSGSGTDFTFTISSLQPEDIATYYCQQYEFFGGGTKVEIG
B7: G001_gp1_V10_VRC01c_2021-0136 (antibody, V domains shown)
VH: QVQLVQSGAEVKKPGASVKVSCTASGYTFTGYYMHWVRQAPGQGLEWMGWINPNSGGTNYAQKFQGWVTMTRDTSINTAYMELSRLRSDDTAVYYCARARSGYSSGWYWAYWGQGTLVTVSS
VL: DIQMTQSPSSLSASVGDRVTITCQASQDISNHLNWYQQKPGKAPKLLIYDASNLETGVPSRFSGSGSGTDFTFTISSLQPEDIATYYCQQYEFFGGGTKVEIT
B8: G001_gp1_V10_VRC01c_2021-0135 (antibody, V domains shown)
VH: QVQLVQSGAEVKKPGASVKVSCKASGYTFTDYYMHWVRQAPGQGLEWMGWINPSSGGTNYAQKFQDWVTMTRDTSISTAYMELSRLRSDDTAVYYCATVAPAAATWGFDSWGQGTLVTVSS
VL: DIQTTQSPSSLSASVGDRVTITCQASQDISNHLNWYQQKPGKGPKLLIYDASNLKTGVPSRFSGSGSGTDFTFIISSLQPEDIATYYCQQYEFFGPGTKVDIK
B9: G001_LD_07A_VRC01c_59 (antibody, V domains shown)
VH: QVQLVQSGAEVKKPGTSVKVSCKASEYTFTGYYVHWVRQAPGQGLEWMGWINPNSGGTNYAQKFQGWVTMTRDTSISTAYMELSRLKSDDTAVYYCARSDYISSWYFGYWGQGTLVTVSS
VL: EIVMTQSPATLSVSPGERATLSCRASQSVSSNLAWYQQKPGQAPRLLIYGTSTRATGIPARFSGSGSGTEFTLTISSLQSEDFAVYYCQQYETFGQGTKVEIK
notes: also called G001-59

Key:
[1] = biological target: eOD-GT8 (engineered outer domain germline-targeting version 8), monomer (HIV-1 gp120 engineered outer domain, …); experiment: SPR; details: both partners purified
[2] = biological target: eOD-GT8 (engineered outer domain germline-targeting version 8), monomer (HIV-1 gp120 engineered outer domain, …)

Row | Binder | Kd [1] | binding result [2]
1 | B1 | 0.437 nM | –
2 | B2 | 0.15 nM | –
3 | B3 | – | binds
4 | B4 | – | binds
5 | B5 | – | binds
6 | B6 | – | binds
7 | B7 | – | binds
8 | B8 | – | binds
9 | B9 | 1.76 nM | –
